Test results reported in patent publication US20140235471A1.
Like-named read-outs stand apart in the source and are kept apart here.

Key:
[1] = target: cell-free expressed recombinant human p53 with N-terminal VSV-G epitope tag and C-terminal polyhisti (human) (UniProt P04637)
[2] = target: cell-free expressed recombinant human KLHL12 with N-terminal VSV-G epitope tag and C-terminal polyhistidine and HSV epitope tags (human) (UniProt Q53G59)
[3] = target: cell-free expressed recombinant human p53 with N-terminal VSV-G epitope tag and C-terminal polyhisti (human) (UniProt P04637); remark: listed apart in the source
[4] = target: cell-free expressed recombinant human p53 with N-terminal VSV-G epitope tag and C-terminal polyhisti (human) (UniProt P04637); test: fluorescence imaging of p53 beads against blank beads, anti-VSV-Cy3 antibody
[5] = target: cell-free expressed recombinant human p53 with N-terminal VSV-G epitope tag and C-terminal polyhisti (human) (UniProt P04637); test: fluorescence imaging of p53 positive against negative control blank beads
[6] = target: cell-free expressed recombinant human p53 with N-terminal VSV-G epitope tag and C-terminal polyhisti (human) (UniProt P04637); test: Bead-ELISA, chemiluminescence normalised to bead fluorescence; mass-tagged beads

UniProt Q53G59, sequence (Q53G59 other isoform, or with tags, fused parts or gaps limits assumed): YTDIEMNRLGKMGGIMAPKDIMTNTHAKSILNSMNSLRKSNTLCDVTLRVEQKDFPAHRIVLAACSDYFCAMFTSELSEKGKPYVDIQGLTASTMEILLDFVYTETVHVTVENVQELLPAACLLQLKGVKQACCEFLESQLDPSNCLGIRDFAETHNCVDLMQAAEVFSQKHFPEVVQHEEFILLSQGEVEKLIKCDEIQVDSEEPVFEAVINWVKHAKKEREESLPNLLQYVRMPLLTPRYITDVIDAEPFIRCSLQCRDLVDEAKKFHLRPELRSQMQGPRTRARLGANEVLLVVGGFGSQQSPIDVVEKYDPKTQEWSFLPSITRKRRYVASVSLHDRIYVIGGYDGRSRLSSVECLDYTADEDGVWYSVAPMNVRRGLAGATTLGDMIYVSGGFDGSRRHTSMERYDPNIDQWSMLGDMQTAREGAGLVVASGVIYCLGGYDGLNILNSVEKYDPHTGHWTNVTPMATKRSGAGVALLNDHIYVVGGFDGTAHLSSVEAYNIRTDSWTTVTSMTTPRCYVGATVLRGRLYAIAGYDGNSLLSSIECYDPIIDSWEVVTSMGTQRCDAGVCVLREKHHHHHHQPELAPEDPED

## anti-HSV tag monoclonal antibody (EMD Biosciences)
[1]
  reduction of the binding capacity of the beads for p53 by the mass tag: 50%

## fluorescently (Cy3) labeled anti-VSV-G tag antibody (Sigma-Aldrich)
[2]
  signal-to-noise ratio: 10 :1
[3]
  signal-to-noise ratio: 60 :1
[4]
  signal-to-noise: 25 :1

## fluorescently labeled (Alexa Fluor 594) anti-p53 antibody, clone BP53-12 (Santa Cruz Biotechnology)
[5]
  signal-to-noise ratio: > 100 :1

## monoclonal anti-VSV-G horseradish peroxidase (HRP) conjugated antibody, Clone P5D4
[1]
  signal-to-noise ratio: 82 :1
[6]
  signal-to-noise ratio: 42 :1
